Laboratory results from patent publication US20240191211A1, “BIOLUMINESCENCE-TRIGGERED PHOTOCATALYTIC LABELING” (Promega Corporation, priority 2022, published 2024).

Target: LgBiT-HaloTag
Test: luminescence saturation binding: VS-HiBiT titrated 200-0 nM against 0.2 nM fusion

Sequence of LgBiT-HaloTag (chain, as listed by the source limits assumed): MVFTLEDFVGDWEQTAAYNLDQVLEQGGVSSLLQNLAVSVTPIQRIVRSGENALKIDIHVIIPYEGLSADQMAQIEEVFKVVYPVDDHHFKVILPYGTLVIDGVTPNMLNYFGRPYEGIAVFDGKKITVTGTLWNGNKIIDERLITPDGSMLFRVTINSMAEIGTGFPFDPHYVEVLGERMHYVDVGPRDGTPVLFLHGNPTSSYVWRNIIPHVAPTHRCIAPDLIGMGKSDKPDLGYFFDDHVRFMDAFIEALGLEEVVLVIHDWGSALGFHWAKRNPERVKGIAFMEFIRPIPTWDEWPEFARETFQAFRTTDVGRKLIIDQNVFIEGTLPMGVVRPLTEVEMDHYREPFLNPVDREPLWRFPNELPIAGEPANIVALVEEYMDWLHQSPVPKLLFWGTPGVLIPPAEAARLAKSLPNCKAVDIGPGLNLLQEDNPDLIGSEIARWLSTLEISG

## VSGWRLFKKIS (modifications not checked) [VS-HiBiT peptide]
  fold complementation affinity (against the VS-HiBiT/HaloTag-LgBiT configuration): 3 fold
